Results as given in patent US6858210B1, “Therapeutic and diagnostic domain 1 β2GPI polypeptides and methods of using same” (La Jolla Pharmaceutical Co., priority 1998, dated 2005).

Tests used:
[1] = tested on: antiphospholipid antibody in plasma from patient 6501; test: Competitive antibody binding ELISA with patient plasma on β2GPI coated plates; design: species or system human; details: plasma patient 6501, 1:200
Method: Nunc Maxisorp microplates (Nalge Nunc International, Denmark) were coated with 100 μL/well of β2GPI at 2.5 μg/mL in PBS, incubated for 2 hours at room temperature, and blocked for 2 hours at room temperature with 250 μl/well of 2% nonfat milk with […] (Sigma Chemical Co.). […] After incubation for one hour at room temperature the plates were washed 5× with TBS. To each well was added 100 μL of alkaline phosphatase-conjugated anti-human IgG, gamma chain specific (Zymed) diluted 1:1000 in 2% nonfat milk with 0.4% Tween-80. After one hour at room temperature the plates were washed 5× with TBS. To each well was added 100 μl PPMP chromogenic substrate solution for color development at room temperature. Optical absorbance per well was determined at A550nm in a commercial microplate reader (Bio-Tek Instruments EL3 11).

Normal human plasma = test: Surface plasmon resonance (BIAcore): control plasma/serum over immobilized β2GPI proteins; format: binding; details: serum of 55 controls
Source text: (§1) Reagents. CM5 chips, NHS and EDC and HBS-EP buffer were from BIAcore. Human haptoglobin (phenotyope 1—1), a protein containing the short consensus repeat motif found in β2GPI, was immobilized in a separate flow cell on the chip and used as a negative control. Recombinant β2GPI and domain-deletion mutants of β2GPI were expressed in Tn5 cells using the baculovirus protein expression system and purified from the supernatants by nickel-chelation affinity column. Iverson et al. (1998) Proc. Natl. Acad. Sci. USA 95:15542-15546. Normal human plasma samples were purchased (George King Biomedical) or obtained in-house. Patient plasma samples from individuals diagnosed with either primary or secondary (to lupus) antiphospholipid antibody syndrome were obtained from a number of clinical sources.
(§2) The 55 controls used in this study were derived from a heterogenous sample. Thirty control samples (15 male; 15 female; mean age 34 yrs, range 19-45 yrs) purchased from George King Bio-Medical (Overland Park, Kans.), 5 local volunteers (3 male, 2 female), 2 pooled commercial sources and 18 blood bank donors of unknown origin were included in the analysis. The patient samples were collected from several sources and included patients with histories of venous thrombosis, arterial occlusions, cerebrovascular occlusions, multiple miscarriages and thrombocytopenia. All patients included in the study had IgG antiphospholipid antibody level (GPL) levels>20 by internal assay.
Surface Plasmon Resonance. All experiments were performed using a BIAcore™ 2000 instrument at 25° C. with a flow rate of 10 μL/minute. Chip equilibration and binding studies were performed with degassed HBS-EP buffer, which consists of 0.01 M HEPES pH 7.4, 0.15 M NaCl, 3 mM EDTA and 0.005% (v/v) surfactant P20. Covalent coupling of protein ligands through their free amino groups to the CM5 chip was accomplished by flowing 40 μL of 0.05 M NHS/0.2M EDC over the chip to activate the chip, followed by exposure to the appropriate protein ligand. Recombinant β2GPI(His)6, domain-deletion mutants of β2GPI and haptoglobin were immobilized by flowing 50 μL of a 25 μg/mL solution in 10 mM acetate, (pH 4.8) over the NHS-activated CM5 chip. The excess reactive groups on the chip surface are then quenched with 40 μL of 1 M ethanoloamine, (pH 8.5). Human plasma samples (130 μL) were diluted 1:1 with HBS-EP, flowed over the β2GPI chip, and response values were collected for 780 seconds. The chips were regenerated between sample exposures with 80 μL of 0.1 M glycine-HCl (pH 2.1), 0.1 M NaCl. Since the approach to binding equilibrium was incomplete during the measurement period, the equilibrium binding value (Req) was determined by fitting the association curves to the following equation using the manufacturers software (BiaEvaluation version 2.2, Uppsala, Sweden) Rt=Req(I−e^−ks(t−t0))+R0 where Rt is the measured BIAcore response at time t, Req is the equilibrium plateau response, t is time, t0 is initial time, k, is an apparent association constant (ks=kaC+kdis, where ka is the association constant, C is the analyte concentration and kdis is the dissociation constant), and R0 is a response offset. In some experiments total IgG fractions from human plasma samples were obtained from binding to and acid elution from protein G. The plasma remaining after binding to protein G was remixed with fresh protein G beads and isolated as IgG-stripped plasma. […]

APS patient plasma = test: Surface plasmon resonance (BIAcore): APS patient plasma/serum over immobilized β2GPI proteins; format: binding, human; design: key: Req = fitted equilibrium plateau BIAcore response
Source text: as §1, §2
Total IgG fraction was isolated from plasma using Immunopure Plus protein G agarose beads and Immunopure IgG binding and elution buffers according to the manufacturers recommendation (Pierce).
Surface Plasmon Resonance. All experiments were performed using a BIAcore™ 2000 instrument at 25° C. with a flow rate of 10 μL/minute. Chip equilibration and binding studies were performed with degassed HBS-EP buffer, which consists of 0.01 M HEPES pH 7.4, 0.15 M NaCl, 3 mM EDTA and 0.005% (v/v) surfactant P20. Covalent coupling of protein ligands through their free amino groups to the CM5 chip was accomplished by flowing 40 μL of 0.05 M NHS/0.2M EDC over the chip to activate the chip, followed by exposure to the appropriate protein ligand. Recombinant β2GPI(His)6, domain-deletion mutants of β2GPI and haptoglobin were immobilized by flowing 50 μL of a 25 μg/mL solution in 10 mM acetate, (pH 4.8) over the NHS-activated CM5 chip. The excess reactive groups on the chip surface are then quenched with 40 μL of 1 M ethanoloamine, (pH 8.5). Human plasma samples (130 μL) were diluted 1:1 with HBS-EP, flowed over the β2GPI chip, and response values were collected for 780 seconds. The chips were regenerated between sample exposures with 80 μL of 0.1 M glycine-HCl (pH 2.1), 0.1 M NaCl. Since the approach to binding equilibrium was incomplete during the measurement period, the equilibrium binding value (Req) was determined by fitting the association curves to the following equation using the manufacturers software (BiaEvaluation version 2.2, Uppsala, Sweden) Rt=Req(I−e^−ks(t−t0))+R0 where Rt is the measured BIAcore response at time t, Req is the equilibrium plateau response, t is time, t0 is initial time, k, is an apparent association constant (ks=kaC+kdis, where ka is the association constant, C is the analyte concentration and kdis is the dissociation constant), and R0 is a response offset. In some experiments total IgG fractions from human plasma samples were obtained from binding to and acid elution from protein G. The plasma remaining after binding to protein G was remixed with fresh protein G beads and isolated as IgG-stripped plasma. Neutralized IgG preparations and IgG-stripped plasma diluted 1:1 with buffer were flowed over the β2GPI chip as described above. Results and Discussion

[2] = biological target: affinity purified β2GPI-dependent antiphospholipid antibody from patient 7104; test: comp. inhibition ELISA
[3] = biological target: affinity purified β2GPI-dependent antiphospholipid antibody from patient 6632; test: comp. inhibition ELISA
[4] = biological target: β2GPI-dependent antiphospholipid antibody from patient 7015; test: comp. inhibition ELISA

B1: 1----: recombinant β2GPI protein with domain 1 only (SEQ ID NO:4 region), His6 tail (protein)
chain: GRTCPKPDDLPFSTVVPLKTFYEPGEEITYSCKPGYVSRGGMRKFICPLTGLWPINTLKCTPRVGHHHHHH
In the case of B1, the “competition for antiphospholipid antibody binding to β2GPI” value [1] is reported as “Competitive binding is also exhibited”.

B2: -2345: recombinant β2GPI deletion mutant with domains 2-5 (protein)
chain: GRTPRVCPFAGILENGAVRYTTFEYPNTISFSCNTGFYLNGADSAKCTEEGKWSPELPVCAPIICPPPSIPTFATLRVYKPSAGNNSLYRDTAVFECLPQHAMFGNDTITCTTHGNWTKLPECREVKCPFPSRPDNGFVNYPAKPTLYYKDKATFGCHDGYSLDGPEEIECTKLGNWSAMPSCKASCKLPVKKATVVYQGERVKIQEKFKNGMLHGDKVSFFCKNKEKKCSYTEDAQCIDGTIEVPKCFKEHSSLAFWKTDASDVKPCGHHHHHH
For B2, the “Median Req” value (Normal human plasma) was 103, the “Req (mean ± sem)” value (Normal human plasma; diluted 1:1) was 160 ± 26 and the Req (APS patient plasma; 43/106 APS patients with negligible interaction) was less than 9. For the same molecule, the “BIAcore Req” value (APS patient plasma; non-selective patient 6117, IgG-stripped Plasma (1:2)) was 0, the “BIAcore Req” value (APS patient plasma; non-selective patient 6117, Total IgG (1:4)) was 79 and the “BIAcore Req” value (APS patient plasma; non-selective patient 6117, Whole Plasma (1:2)) was 386. For the same molecule, the “BIAcore Req” value (APS patient plasma; non-selective patient 6194, IgG-stripped Plasma (1:2)) was 0, the “BIAcore Req” value (APS patient plasma; non-selective patient 6194, Total IgG (1:4)) was 688 and the “BIAcore Req” value (APS patient plasma; non-selective patient 6194, Whole Plasma (1:2)) was 3197. The “BIAcore Req” value (APS patient plasma; non-selective patient 6611, IgG-stripped Plasma (1:2)) was 0, the “BIAcore Req” value (APS patient plasma; non-selective patient 6611, Total IgG (1:4)) was 177 and the “BIAcore Req” value (APS patient plasma; non-selective patient 6611, Whole Plasma (1:2)) was 1002. For the same molecule, the “BIAcore Req” value (APS patient plasma; non-selective patient 6627, IgG-stripped Plasma (1:2)) was 0, the “BIAcore Req” value (APS patient plasma; non-selective patient 6627, Total IgG (1:4)) was 182 and the “BIAcore Req” value (APS patient plasma; non-selective patient 6627, Whole Plasma (1:2)) was 549. For the same molecule, the “BIAcore Req” value (APS patient plasma; non-selective patient 6649, IgG-stripped Plasma (1:2)) was 0, the “BIAcore Req” value (APS patient plasma; non-selective patient 6649, Total IgG (1:4)) was 127 and the “BIAcore Req” value (APS patient plasma; non-selective patient 6649, Whole Plasma (1:2)) was 553. The “BIAcore Req” value (APS patient plasma; non-selective patient 7013, IgG-stripped Plasma (1:2)) was 0, the “BIAcore Req” value (APS patient plasma; non-selective patient 7013, Total IgG (1:4)) was 75 and the “BIAcore Req” value (APS patient plasma; non-selective patient 7013, Whole Plasma (1:2)) was 167. The “BIAcore Req” value (APS patient plasma; patient 6207, IgG-stripped Plasma (1:2)) was 0, the “BIAcore Req” value (APS patient plasma; patient 6207, Total IgG (1:4)) was 0 and the “BIAcore Req” value (APS patient plasma; patient 6207, Whole Plasma (1:2)) was 19. For the same molecule, the “BIAcore Req” value (APS patient plasma; patient 6501, IgG-stripped Plasma (1:2)) was 0, the “BIAcore Req” value (APS patient plasma; patient 6501, Total IgG (1:4)) was 0 and the “BIAcore Req” value (APS patient plasma; patient 6501, Whole Plasma (1:2)) was 333. For the same molecule, the “BIAcore Req” value (APS patient plasma; patient 6515, IgG-stripped Plasma (1:2)) was 0, the “BIAcore Req” value (APS patient plasma; patient 6515, Total IgG (1:4)) was 0 and the “BIAcore Req” value (APS patient plasma; patient 6515, Whole Plasma (1:2)) was 259. For the same molecule, the “BIAcore Req” value (APS patient plasma; patient 6601, IgG-stripped Plasma (1:2)) was 0, the “BIAcore Req” value (APS patient plasma; patient 6601, Total IgG (1:4)) was 0 and the “BIAcore Req” value (APS patient plasma; patient 6601, Whole Plasma (1:2)) was 84. The “BIAcore Req” value (APS patient plasma; patient 6626, IgG-stripped Plasma (1:2)) was 0, the “BIAcore Req” value (APS patient plasma; patient 6626, Total IgG (1:4)) was 0 and the “BIAcore Req” value (APS patient plasma; patient 6626, Whole Plasma (1:2)) was 37. For the same molecule, the “BIAcore Req” value (APS patient plasma; patient 6642, IgG-stripped Plasma (1:2)) was 0, the “BIAcore Req” value (APS patient plasma; patient 6642, Total IgG (1:4)) was 0 and the “BIAcore Req” value (APS patient plasma; patient 6642, Whole Plasma (1:2)) was 8. The “BIAcore Req” value (APS patient plasma; patient 6701, IgG-stripped Plasma (1:2)) was 0, the “BIAcore Req” value (APS patient plasma; patient 6701, Total IgG (1:4)) was 0 and the “BIAcore Req” value (APS patient plasma; patient 6701, Whole Plasma (1:2)) was 199. The “BIAcore Req” value (APS patient plasma; patient 6703, IgG-stripped Plasma (1:2)) was 0, the “BIAcore Req” value (APS patient plasma; patient 6703, Total IgG (1:4)) was 0 and the “BIAcore Req” value (APS patient plasma; patient 6703, Whole Plasma (1:2)) was 65. The “BIAcore Req” value (APS patient plasma; patient 7015, IgG-stripped Plasma (1:2)) was 0, the “BIAcore Req” value (APS patient plasma; patient 7015, Total IgG (1:4)) was 0 and the “BIAcore Req” value (APS patient plasma; patient 7015, Whole Plasma (1:2)) was 158. For the same molecule, the “BIAcore Req” value (APS patient plasma; patient 7201, IgG-stripped Plasma (1:2)) was 0, the “BIAcore Req” value (APS patient plasma; patient 7201, Total IgG (1:4)) was 0 and the “BIAcore Req” value (APS patient plasma; patient 7201, Whole Plasma (1:2)) was 0. For the same molecule, the “Median Req” value (APS patient plasma; serum of 106 APS patients (GPL ≧ 20)) was 24 and the “Req (mean ± sem)” value (APS patient plasma; serum of 106 APS patients (GPL ≧ 20), diluted 1:1) was 158 ± 36.

B3: recombinant β2GPI domain 5 with GlyHis6 (----5) (protein)
chain: GRASCKLPVKKATVVYQGERVKIQEKFKNGMLHGDKVSFFCKNKEKKCSYTEDAQCIDGTIEVPKCFKEHSSLAFWKTDASDVKPCGHHHHHH
In the case of B3, the IC50 [2] is reported as greater than 47 µM, the Max inhibition [2] is reported as 0% and the IC50 [3] is reported as greater than 47 µM. The Max inhibition [3] was 10%, the IC50 [4] was greater than 47 µM and the Max inhibition [4] was 10%.
